Data on five molecules can be found in patent US20240044046A1 (BIOATLA, published 2024).

The target in experiment [1] is T1, CD73 on MCF-7 cells (human, UniProt P21589 27-549).
T1 sequence (looked up): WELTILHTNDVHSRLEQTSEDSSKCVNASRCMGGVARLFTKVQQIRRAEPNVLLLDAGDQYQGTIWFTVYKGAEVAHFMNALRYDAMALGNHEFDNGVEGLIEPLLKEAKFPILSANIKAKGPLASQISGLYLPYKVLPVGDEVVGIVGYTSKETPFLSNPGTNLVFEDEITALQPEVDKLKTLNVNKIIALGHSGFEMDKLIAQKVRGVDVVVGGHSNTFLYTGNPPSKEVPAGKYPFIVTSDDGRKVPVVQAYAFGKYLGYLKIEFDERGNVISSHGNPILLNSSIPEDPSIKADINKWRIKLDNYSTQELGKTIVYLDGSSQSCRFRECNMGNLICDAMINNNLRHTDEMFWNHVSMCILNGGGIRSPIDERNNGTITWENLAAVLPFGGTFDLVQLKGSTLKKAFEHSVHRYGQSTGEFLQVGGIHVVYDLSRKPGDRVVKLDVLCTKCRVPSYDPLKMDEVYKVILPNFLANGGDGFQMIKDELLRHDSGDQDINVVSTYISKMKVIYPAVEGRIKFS
The experiment is described as follows: cell-based or functional assay.

Experiment [2] has as its target T2, B7H4 on T47D cells (human, UniProt Q7Z7D3 25-282).
T2 sequence (looked up): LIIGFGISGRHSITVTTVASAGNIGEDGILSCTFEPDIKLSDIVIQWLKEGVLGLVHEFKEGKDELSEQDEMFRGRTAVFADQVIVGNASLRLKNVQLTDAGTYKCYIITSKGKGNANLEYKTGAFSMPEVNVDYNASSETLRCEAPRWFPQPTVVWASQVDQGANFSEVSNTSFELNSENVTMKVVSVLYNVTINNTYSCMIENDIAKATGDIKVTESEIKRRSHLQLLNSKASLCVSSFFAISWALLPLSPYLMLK
The experiment can be described thus: cell-based or functional assay.

B1: BAP147-WT (antibody, V domains shown)
VH: EVQLLESGGGLVQPGGSLRLSCAASGFTFSSYAYSWVRQAPGKGLEWVSAISGSGGRTYYADSVKGRFTISRDNSKNTLYLQMNSLRAEDTAVYYCARLGYGRVDEWGRGTLVTVSS
VL: QSVLTQPPSASGTPGQRVTISCSGSLSNIGRNPVNWYQQLPGTAPKLLIYLDNLRLSGVPDRFSGSKSGTSASLAISGLQSEDEADYYCATWDDSHPGWTFGGGTKLTVL
Regarding B1, in experiment [1], the “EC50 (ng/mL), ADCC reporter bioassay, Palbociclib Isethionate-treated MCF-7 cells, pH6.0” value stood at 1.26 ng/mL; the “EC50 (ng/mL), ADCC reporter bioassay, Palbociclib Isethionate-treated MCF-7 cells, pH7.4” value was 1.16 ng/mL; the “EC50 (ng/mL), ADCC reporter bioassay, untreated MCF-7 cells, pH6.0” value (shortened to “EC50 (ng/mL) … untreated MCF-7 cells, pH6.0”) amounted to 2.17 ng/mL; the “EC50 (ng/mL), ADCC reporter bioassay, untreated MCF-7 cells, pH7.4” value (shortened to “EC50 (ng/mL) … untreated MCF-7 cells, pH7.4”) worked out at 1.07 ng/mL. Moreover, in experiment [1], the “pH7.4/pH6.0 ratio of ADCC EC50, Palbociclib Isethionate-treated MCF-7 cells” value amounted to 0.92 ratio and the “pH7.4/pH6.0 ratio of ADCC EC50, untreated MCF-7 cells” value is 0.49 ratio.

B2: BAP147-HC-Y101E (antibody, V domains shown)
VH: EVQLLESGGGLVQPGGSLRLSCAASGFTFSSYAYSWVRQAPGKGLEWVSAISGSGGRTYYADSVKGRFTISRDNSKNTLYLQMNSLRAEDTAVYYCARLGEGRVDEWGRGTLVTVSS
VL: QSVLTQPPSASGTPGQRVTISCSGSLSNIGRNPVNWYQQLPGTAPKLLIYLDNLRLSGVPDRFSGSKSGTSASLAISGLQSEDEADYYCATWDDSHPGWTFGGGTKLTVL
For B2, in experiment [1], the “EC50 (ng/mL), ADCC reporter bioassay, Palbociclib Isethionate-treated MCF-7 cells, pH6.0” value stood at 55.9 ng/mL; the “EC50 (ng/mL), ADCC reporter bioassay, Palbociclib Isethionate-treated MCF-7 cells, pH7.4” value stood at 545 ng/mL; the “EC50 (ng/mL) … untreated MCF-7 cells, pH6.0” value came to 173 ng/mL; the “EC50 (ng/mL) … untreated MCF-7 cells, pH7.4” value stood at 100 ng/mL. In addition, in experiment [1], the “pH7.4/pH6.0 ratio of ADCC EC50, Palbociclib Isethionate-treated MCF-7 cells” value worked out at 9.74 ratio and the “pH7.4/pH6.0 ratio of ADCC EC50, untreated MCF-7 cells” value was found to be 0.577 ratio.

B3: BAP147-LC-L051D (antibody, V domains shown)
VH: EVQLLESGGGLVQPGGSLRLSCAASGFTFSSYAYSWVRQAPGKGLEWVSAISGSGGRTYYADSVKGRFTISRDNSKNTLYLQMNSLRAEDTAVYYCARLGYGRVDEWGRGTLVTVSS
VL: QSVLTQPPSASGTPGQRVTISCSGSLSNIGRNPVNWYQQLPGTAPKLLIYDDNLRLSGVPDRFSGSKSGTSASLAISGLQSEDEADYYCATWDDSHPGWTFGGGTKLTVL
On to B3, for which, in experiment [1], the “EC50 (ng/mL), ADCC reporter bioassay, Palbociclib Isethionate-treated MCF-7 cells, pH6.0” value was 28.9 ng/mL; the “EC50 (ng/mL), ADCC reporter bioassay, Palbociclib Isethionate-treated MCF-7 cells, pH7.4” value came out at 134 ng/mL; the “EC50 (ng/mL) … untreated MCF-7 cells, pH6.0” value was determined as 44.2 ng/mL; the “EC50 (ng/mL) … untreated MCF-7 cells, pH7.4” value stood at 106 ng/mL. In experiment [1], the “pH7.4/pH6.0 ratio of ADCC EC50, Palbociclib Isethionate-treated MCF-7 cells” value came out at 4.62 ratio and the “pH7.4/pH6.0 ratio of ADCC EC50, untreated MCF-7 cells” value turned out to be 2.39 ratio.

B4: BA-091-02-04-04 (antibody, V domains shown)
VH: EVQLVQSGAEVKKPGATVKISCKVSGYTFTDRTIHWIRQSPSRGLEWLGSIYPRDGSTKYNEKFKDRVTITADKSTSTAYMELSSLRSEDTAVYYCARSVGYADDYWGQGTLVTVSS
VL: DVVMTQSPLSLPVTLGQPASISCRVSEGIDNYGFTFIHWYQQKPGKAPKLLIYRASNLQSGIPARFSGSGSGTEFTLTISSLQSEDFAVYYCQQSDKDPFTFGQGTKVEIK
As for B4, in experiment [2], the “EC50 (ng/ml), ADCC reporter bioassay, Palbociclib Isethionate-treated T47D cells, pH 6.0” value stood at 27 ng/ml; the “EC50 (ng/ml), ADCC reporter bioassay, Palbociclib Isethionate-treated T47D cells, pH 7.4” value stood at 149 ng/ml; the “EC50 (ng/ml), ADCC reporter bioassay, untreated T47D cells, pH 6.0” value was 98.1 ng/ml; the “EC50 (ng/ml), ADCC reporter bioassay, untreated T47D cells, pH 7.4” value worked out at 429 ng/ml. Besides, in experiment [2], the “pH 7.4/pH 6.0 ratio of ADCC EC50, Palbociclib Isethionate-treated T47D cells” value is 5.53 ratio and the “pH 7.4/pH 6.0 ratio of ADCC EC50, untreated T47D cells” value was 4.37 ratio.

B5: BA-091-00-2E2 (antibody, V domains shown)
VH: QVQLQQSDAELVKPGASVKISCKVSGYTFTDRTIHWMKQRPEQGLEWIGSIYPRDGSTKYNEKFKDKATLTADKSSSTAYMQLNSLTSEDSAVYFCARSVGYAFDYWGQGTTLTVSS
VL: DIVLTQSPASLAVSLGQRATISCRVSEGIDNYGFTFIHWYQQKPGQPPKLLIYRASNLQSGIPARFSGSGSRTDFTLTIYPVETDDVATYYCQQSDKDPFTFGSGTKLEIK
Consider B5, for which, in experiment [2], the “EC50 (ng/ml), ADCC reporter bioassay, Palbociclib Isethionate-treated T47D cells, pH 6.0” value is 2.97 ng/ml; the “EC50 (ng/ml), ADCC reporter bioassay, Palbociclib Isethionate-treated T47D cells, pH 7.4” value stood at 10.2 ng/ml; the “EC50 (ng/ml), ADCC reporter bioassay, untreated T47D cells, pH 6.0” value amounted to 7.55 ng/ml; the “EC50 (ng/ml), ADCC reporter bioassay, untreated T47D cells, pH 7.4” value stood at 11.7 ng/ml. Moreover, in experiment [2], the “pH 7.4/pH 6.0 ratio of ADCC EC50, Palbociclib Isethionate-treated T47D cells” value amounted to 3.41 ratio and the “pH 7.4/pH 6.0 ratio of ADCC EC50, untreated T47D cells” value turned out to be 1.54 ratio.
